The source of these data is the supplement of paper PMC10567573.

First the molecules themselves.
B1: SPOPL (parent)
chain: AKREETKAMESQRAYRFVQGKDWG
B2: SNAP91 (parent)
chain: FATASAAVPVSTSKPSSDLLDLQP
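Further: lentivirally expressed fusions sorted by FACS into six bins by GFP to DsRed ratio, PSI derived from sequencing read proportions per bin multiplied by bin number.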

The variants in one data set derive from B1. Nature of the data set: protein stability index of a GFP-peptide fusion (GPS, HEK-293T) (PSI 1-6); higher = more stable. Particulars: c terminus: a fixed tail appended.
Regarding CKREETKAMESQRAYRFVQGKDWG [A1C], the protein stability index turned out to be 2.14. The same measure, in the same setting: as for AKRKETKAMESQRAYRFVQGKDWG [E4K], the figure is 2.77; as for AKRGETKAMESQRAYRFVQGKDWG [E4G], 2.81. For the variant AKRQETKAMESQRAYRFVQGKDWG [E4Q], the protein stability index is 2.65. Still for that read-out and setting: as for AKRLETKAMESQRAYRFVQGKDWG [E4L], the figure is 2.26. Still for that read-out and setting: as for AKRAETKAMESQRAYRFVQGKDWG [E4A], the figure is 2.96; as for AKRIETKAMESQRAYRFVQGKDWG [E4I], 3.2; as for AKRRETKAMESQRAYRFVQGKDWG [E4R], 2.44. On the same count and under the same terms, as for AKRFETKAMESQRAYRFVQGKDWG [E4F], the figure is 2.21. Consider AKRTETKAMESQRAYRFVQGKDWG [E4T], for which the protein stability index came out at 3. The same measure, in the same setting: as for AKRYETKAMESQRAYRFVQGKDWG [E4Y], the figure is 2.02; as for AKRSETKAMESQRAYRFVQGKDWG [E4S], 3.05; as for AKRHETKAMESQRAYRFVQGKDWG [E4H], 2.5.

Take AKRVETKAMESQRAYRFVQGKDWG [E4V]: the protein stability index turned out to be 2.42.

As for AKRMETKAMESQRAYRFVQGKDWG [E4M], the protein stability index amounted to 2.63. Still for that read-out and setting: with AKRWETKAMESQRAYRFVQGKDWG [E4W] the figure was 2.59.

As to AKRPETKAMESQRAYRFVQGKDWG [E4P], the protein stability index was determined as 2.96. Same read-out and setting: as for AKRCETKAMESQRAYRFVQGKDWG [E4C], the figure is 2.35; as for AKRNETKAMESQRAYRFVQGKDWG [E4N], 2.54. On the same count and under the same terms, with AKRDETKAMESQRAYRFVQGKDWG [E4D] the figure was 3.26; with AKREETFAMESQRAYRFVQGKDWG [K7F], 2.9.

For AKREETDAMESQRAYRFVQGKDWG [K7D], the protein stability index worked out at 3.29.

Turning to AKREETEAMESQRAYRFVQGKDWG [K7E], the protein stability index stood at 3.72. The same measure, in the same setting: with AKREETAAMESQRAYRFVQGKDWG [K7A] the figure was 3.52; with AKREETNAMESQRAYRFVQGKDWG [K7N], 3.25; with AKREETGAMESQRAYRFVQGKDWG [K7G], 3.23. The same measure, in the same setting: as for AKREETRAMESQRAYRFVQGKDWG [K7R], the figure is 2.57; as for AKREETQAMESQRAYRFVQGKDWG [K7Q], 3.04; as for AKREETCAMESQRAYRFVQGKDWG [K7C], 1.78. The same measure, in the same setting: with AKREETYAMESQRAYRFVQGKDWG [K7Y] the figure was 3.5.

As to AKREETPAMESQRAYRFVQGKDWG [K7P], the protein stability index was found to be 3.37. On the same count and under the same terms, as for AKREETMAMESQRAYRFVQGKDWG [K7M], the figure is 2.62; as for AKREETVAMESQRAYRFVQGKDWG [K7V], 2.83; as for AKREETSAMESQRAYRFVQGKDWG [K7S], 3.23. Regarding AKREETTAMESQRAYRFVQGKDWG [K7T], the protein stability index came out at 3.53.

Turning to AKREETWAMESQRAYRFVQGKDWG [K7W], the protein stability index was determined as 2.04. Still for that read-out and setting: as for AKREETHAMESQRAYRFVQGKDWG [K7H], the figure is 2.8. Regarding AKREETLAMESQRAYRFVQGKDWG [K7L], the protein stability index is 2.44.

Turning to AKREETIAMESQRAYRFVQGKDWG [K7I], the protein stability index came out at 2.72.

For AKREETKACESQRAYRFVQGKDWG [M9C], the protein stability index was 3.58.

AKREETKADESQRAYRFVQGKDWG [M9D]: the protein stability index was 3.71. Still for that read-out and setting: with AKREETKAGESQRAYRFVQGKDWG [M9G] the figure was 3.45; with AKREETKAAESQRAYRFVQGKDWG [M9A], 3.66; with AKREETKAEESQRAYRFVQGKDWG [M9E], 3.85.

Take AKREETKAFESQRAYRFVQGKDWG [M9F]: the protein stability index stood at 2.79.

Turning to AKREDTKAMESQRAYRFVQGKDWG [E5D], the protein stability index amounted to 4.16.

For AKREYTKAMESQRAYRFVQGKDWG [E5Y], the protein stability index was 1.71. Still for that read-out and setting: with AKREITKAMESQRAYRFVQGKDWG [E5I] the figure was 2.26.

For the variant AKREATKAMESQRAYRFVQGKDWG [E5A], the protein stability index came out at 2.67. Turning to AKREKTKAMESQRAYRFVQGKDWG [E5K], the protein stability index turned out to be 2.79. Take AKREQTKAMESQRAYRFVQGKDWG [E5Q]: the protein stability index worked out at 2.32. Still for that read-out and setting: as for AKREVTKAMESQRAYRFVQGKDWG [E5V], the figure is 3.02.

Turning to AKRESTKAMESQRAYRFVQGKDWG [E5S], the protein stability index was 2.32.

For the variant AKRENTKAMESQRAYRFVQGKDWG [E5N], the protein stability index is 2.76. Same read-out and setting: as for AKREFTKAMESQRAYRFVQGKDWG [E5F], the figure is 2.4.

For the variant AKRELTKAMESQRAYRFVQGKDWG [E5L], the protein stability index was 3.15.

With AKREGTKAMESQRAYRFVQGKDWG [E5G], the protein stability index turned out to be 2.35. Still for that read-out and setting: as for AKREMTKAMESQRAYRFVQGKDWG [E5M], the figure is 2.28; as for AKRERTKAMESQRAYRFVQGKDWG [E5R], 2.38; as for AKREPTKAMESQRAYRFVQGKDWG [E5P], 2.76. The same measure, in the same setting: as for AKREWTKAMESQRAYRFVQGKDWG [E5W], the figure is 1.75. Take AKREHTKAMESQRAYRFVQGKDWG [E5H]: the protein stability index came out at 2.28. The same measure, in the same setting: as for AKRETTKAMESQRAYRFVQGKDWG [E5T], the figure is 2.9.

Consider AKRECTKAMESQRAYRFVQGKDWG [E5C], for which the protein stability index worked out at 2.37.

The next data set covers variants of B2. Described as above. As to conditions: c terminus: a fixed tail appended.
Turning to FATASAAVPVSTSKPSSDLLDLQR [P24R], the protein stability index was determined as 3.71. Still for that read-out and setting: as for FATASAAVPVSTSKPSSDLLDLQH [P24H], the figure is 3.74; as for FATASAAVPVSTSKPSSDLLDLQC [P24C], 3.56; as for FATASAAVPVSTSKPSSDLLDLQT [P24T], 3.88. On to FATASAAVPVSTSKPSSDLLDLQS [P24S], for which the protein stability index was 3.64. On to FATASAAVPVSTSKPSSDLLDLQQ [P24Q], for which the protein stability index was 4.06. Still for that read-out and setting: with FATASAAVPVSTSKPSSDLLDLQW [P24W] the figure was 2.35.

For FATASAAVPVSTSKPSSDLLDLQD [P24D], the protein stability index amounted to 4.52. On the same count and under the same terms, with FATASAAVPVSTSKPSSDLLDLQA [P24A] the figure was 3.94; with FATASAAVPVSTSKPSSDLLDLQK [P24K], 4.34.

For FATASAAVPVSTSKPSSDLLDLQM [P24M], the protein stability index stood at 3.52. With FATASAAVPVSTSKPSSDLLDLQG [P24G], the protein stability index is 3.63. Same read-out and setting: as for FATASAAVPVSTSKPSSDLLDLQV [P24V], the figure is 3.41; as for FATASAAVPVSTSKPSSDLLDLQE [P24E], 4.53; as for FATASAAVPVSTSKPSSDLLDLQN [P24N], 3.43. Same read-out and setting: as for FATASAAVPVSTSKPSSDLLDLQL [P24L], the figure is 3.1; as for FATASAAVPVSTSKPSSDLLDLQI [P24I], 3.3.

As for FATASAAVPVSTSKPSSDLLDLQY [P24Y], the protein stability index stood at 3.27. Same read-out and setting: as for FATASAAVPVSTSKPSSDLLDLQF [P24F], the figure is 2.8; as for FATASAAVPVSTSKPSSDLLDLRP [Q23R], 3.34.

On to FATASAAVPVSTSKPSSDLLDLSP [Q23S], for which the protein stability index is 4.18. Still for that read-out and setting: with FATASAAVPVSTSKPSSDLLDLYP [Q23Y] the figure was 2.8; with FATASAAVPVSTSKPSSDLLDLLP [Q23L], 3.38; with FATASAAVPVSTSKPSSDLLDLVP [Q23V], 3.4.

As for FATASAAVPVSTSKPSSDLLDLMP [Q23M], the protein stability index is 3.29.

Consider FATASAAVPVSTSKPSSDLLDLNP [Q23N], for which the protein stability index stood at 4.08. The same measure, in the same setting: as for FATASAAVPVSTSKPSSDLLDLPP [Q23P], the figure is 4.13. Same read-out and setting: as for FATASAAVPVSTSKPSSDLLDLTP [Q23T], the figure is 3.96. Still for that read-out and setting: with FATASAAVPVSTSKPSSDLLDLWP [Q23W] the figure was 2.69; with FATASAAVPVSTSKPSSDLLDLKP [Q23K], 3.42.
